We go through 3 molecules from patent publication US20130336885A1 (Genentech, published 2013).

One may read the Kd as the constant that tells how readily two partners part at equilibrium.

Test [1] deals with T1, gD epitope-tagged mouse LgR5 expressed on stably transfected 293 cells (mouse, UniProt Q9Z1P4 22-907).
T1 construct: also called gD-tagged mouse LgR5
T1 sequence: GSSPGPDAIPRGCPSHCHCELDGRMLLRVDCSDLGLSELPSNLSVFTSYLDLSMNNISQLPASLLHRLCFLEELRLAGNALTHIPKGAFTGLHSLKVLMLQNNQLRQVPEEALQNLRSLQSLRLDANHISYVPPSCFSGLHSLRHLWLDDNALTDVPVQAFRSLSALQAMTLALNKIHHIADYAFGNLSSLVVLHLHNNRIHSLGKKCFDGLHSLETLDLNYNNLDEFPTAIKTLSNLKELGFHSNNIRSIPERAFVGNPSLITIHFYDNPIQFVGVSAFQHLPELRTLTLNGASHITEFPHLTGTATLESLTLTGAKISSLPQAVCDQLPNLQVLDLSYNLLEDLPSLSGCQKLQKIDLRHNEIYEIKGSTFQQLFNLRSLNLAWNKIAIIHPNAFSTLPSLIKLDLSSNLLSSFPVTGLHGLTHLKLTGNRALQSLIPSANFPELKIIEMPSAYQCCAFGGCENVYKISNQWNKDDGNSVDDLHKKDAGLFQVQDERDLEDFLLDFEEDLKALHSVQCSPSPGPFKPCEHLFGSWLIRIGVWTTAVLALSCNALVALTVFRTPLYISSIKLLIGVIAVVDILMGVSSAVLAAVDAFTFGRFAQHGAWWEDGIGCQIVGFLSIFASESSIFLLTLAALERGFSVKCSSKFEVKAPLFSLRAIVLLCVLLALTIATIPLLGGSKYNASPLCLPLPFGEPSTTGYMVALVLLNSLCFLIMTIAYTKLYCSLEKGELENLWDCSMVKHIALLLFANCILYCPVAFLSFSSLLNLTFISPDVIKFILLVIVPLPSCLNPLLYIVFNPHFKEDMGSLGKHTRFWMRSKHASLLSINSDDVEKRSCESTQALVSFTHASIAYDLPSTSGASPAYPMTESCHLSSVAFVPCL
Kind of test: Scatchard analysis, 125I-labelled antibody competed by unlabelled antibody on stably transfected 293 cells. Here is the method:
(§1) Scatchard analysis was performed following standard procedures (Holmes et al., Science 256:1205-1210 (1992)) to determine the relative binding affinities of YW353, ch8E11 and hu8E11v2 antibodies.
(§2) Anti-LgrS antibodies were [I¹²⁵] labeled using the indirect Iodogen method. […] Competition assay mixtures of 50 μL volume containing a fixed concentration of [I¹²⁵] labeled antibody and decreasing concentrations of serially diluted, unlabeled antibody were placed into 96-well plates. 293 cells stably expression human, rat, or mouse LgrS were cultured in growth media at 37° C. in 5% CO₂. Cells were detached from the flask using Sigma Cell Dissociation Solution and were washed with binding buffer, which consisted of Dulbecco's Modified Eagle Medium (DMEM) with 2% fetal bovine serum (FBS), 50 mM HEPES (pH 7.2) and 0.1% sodium azide. The washed cells were added to the 96 well plates at a density of 250,000 cells in 0.2 mL of binding buffer. The final concentration of the labeled antibody in each well was […]. The final concentration of the unlabeled antibody in the competition assay ranged from 500 nM through ten 2-fold diluation steps to a 0 nM buffer-only assay. Competition assays were carried out in triplicate. Competition assays were incubated for 2 hours at room temperature. After the 2-hour incubation, the competition assays were transferred to a Millipore Multiscreen filter plate (Billerica, Mass.) and washed 4 times with binding buffer to separate the free from bound [I¹²⁵] labeled antibody. The filters were counted on a Wallac Wizard 1470 gamma counter (PerkinElmer Life and Analytical Sciences Inc.; Wellesley, Mass.). The binding data was evaluated using NewLigand software (Genentech), which uses the fitting algorithm of Munson and Robard to determine the binding affinity of the antibody (Munson and Robard 1980)

Test [2] addresses T2, gD epitope-tagged human LgR5 (full-length) expressed on transfected 293 cells (human, UniProt O75473 22-907).
T2 construct: also called gD-tagged human LgR5
T2 sequence: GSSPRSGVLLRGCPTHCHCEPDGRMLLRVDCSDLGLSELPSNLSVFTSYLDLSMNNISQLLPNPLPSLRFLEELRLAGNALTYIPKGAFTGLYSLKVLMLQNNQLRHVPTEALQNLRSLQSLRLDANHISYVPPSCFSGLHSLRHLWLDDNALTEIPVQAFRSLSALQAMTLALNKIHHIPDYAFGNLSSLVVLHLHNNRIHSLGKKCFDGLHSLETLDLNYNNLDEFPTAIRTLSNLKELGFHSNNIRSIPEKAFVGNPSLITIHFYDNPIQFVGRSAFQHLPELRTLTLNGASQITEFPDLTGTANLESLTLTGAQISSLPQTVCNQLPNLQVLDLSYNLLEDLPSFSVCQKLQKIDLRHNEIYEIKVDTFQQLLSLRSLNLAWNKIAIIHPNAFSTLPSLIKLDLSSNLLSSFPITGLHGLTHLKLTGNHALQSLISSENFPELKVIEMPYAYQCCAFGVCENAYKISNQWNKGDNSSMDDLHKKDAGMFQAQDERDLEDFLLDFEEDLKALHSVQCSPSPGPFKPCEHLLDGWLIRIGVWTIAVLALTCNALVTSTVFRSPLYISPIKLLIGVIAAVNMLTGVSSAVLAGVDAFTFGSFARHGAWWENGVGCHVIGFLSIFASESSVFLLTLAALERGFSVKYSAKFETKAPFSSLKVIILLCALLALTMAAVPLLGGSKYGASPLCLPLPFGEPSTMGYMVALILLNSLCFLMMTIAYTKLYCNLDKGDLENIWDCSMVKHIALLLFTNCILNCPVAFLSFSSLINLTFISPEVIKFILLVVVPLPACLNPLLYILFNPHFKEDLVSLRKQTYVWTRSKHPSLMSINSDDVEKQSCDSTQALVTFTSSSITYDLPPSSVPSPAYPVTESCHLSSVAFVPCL
The test is described as above. On the procedure: as §1, §2

B1: chimeric monoclonal antibody 8E11 (antibody, human IgG1, V domains shown)
VH: QVQLQQSGTELMKPGASVKISCKATGYTFSAYWIEWIKQRPGHGLEWIGEILPGSDSTDYNEKFKVKATFSSDTSSNTVYIQLNSLTYEDSAVYYCARGGHYGSLDYWGQGTTLKVSS
VL: NIVLTQSPASLAVSLGQRATISCRASESVDNYGNSFMHWYQQKPGQPPKLLIYLASNLESGVPARFSGSGSRTDFTLTIDPVEADDAATYYCQQNYEDPFTFGSGTKVEIKR
notes: also called ch8E11; chimeric 8E11
On to B1, for which the Kd is 0.2 nM in test [1] and 0.4 nM in test [2].

B2: humanized monoclonal antibody 8E11.v2 (antibody, human IgG1, kappa, V domains shown)
VH: EVQLVQSGAEVKKPGASVKVSCKASGYTFSAYWIEWVRQAPGQGLEWIGEILPGSDSTDYNEKFKVRATFTSDTSTSTVYLELSSLRSEDTAVYYCARGGHYGSLDYWGQGTLVTVSS
VL: DIVMTQSPDSLAVSLGERATINCRASESVDNYGNSFMHWYQQKPGQPPKLLIYLASNLESGVPDRFSGSGSGTDFTLTISSLQAEDVAVYYCQQNYEDPFTFGQGTKVEIKR
notes: It was assessed as an IgG; also called hu8E11.v2; hu8E11v2
For the molecule B2, in test [1], the Kd was 0.5 nM.

B3: human antibody YW353 (antibody, human IgG1, kappa, V domains shown)
VH: EVQLVESGGGLVQPGGSLRLSCAASGFTFTSYSISWVRQAPGKGLEWVAEIYPPGGYTDYADSVKGRFTISADTSKNTAYLQMNSLRAEDTAVYYCAKARLFFDYWGQGTLVTVSS
VL: DIQMTQSPSSLSASVGDRVTITCRASQDVSTAVAWYQQKPGKAPKLLIYSASFLYSGVPSRFSGSGSGTDFTLTISSLQPEDFATYYCQQSYTTPPTFGQGTKVEIKR
notes: also called huYW353
Regarding B3, the Kd in test [2] was determined as 0.2 nM.
